Results: patent US20130129722A1

Tests used:
[1] = biological target: Monkey Ang-2FD-hFc (monkey (Macca fascicularis)); assay: ELISA; 16.67 nM antibody premixed with Ang-2FD-hFc, binding to coated hTie-2-mFc
[2] = biological target: Human Ang-2FD-hFc (human); assay: as above
[3] = biological target: Mouse Ang-2FD-hFc (mouse (Mus musculus)); assay: as above
[4] = biological target: Dimeric Monkey Ang-2FD conjugated to human IgG1 (monkey (Macca fascicularis)); assay: SPR, human IgG1 antibody captured
[5] = biological target: Dimeric Human Ang-2FD conjugated to human IgG1 (human); assay: SPR, human IgG1 antibody captured
[6] = biological target: Dimeric Mouse Ang-2FD conjugated to human IgG1 (mouse (Mus musculus)); assay: SPR, human IgG1 antibody captured
Sequence of Dimeric Mouse Ang-2FD conjugated to human IgG1 (mouse (Mus musculus)) (chain, as listed by the source limits assumed): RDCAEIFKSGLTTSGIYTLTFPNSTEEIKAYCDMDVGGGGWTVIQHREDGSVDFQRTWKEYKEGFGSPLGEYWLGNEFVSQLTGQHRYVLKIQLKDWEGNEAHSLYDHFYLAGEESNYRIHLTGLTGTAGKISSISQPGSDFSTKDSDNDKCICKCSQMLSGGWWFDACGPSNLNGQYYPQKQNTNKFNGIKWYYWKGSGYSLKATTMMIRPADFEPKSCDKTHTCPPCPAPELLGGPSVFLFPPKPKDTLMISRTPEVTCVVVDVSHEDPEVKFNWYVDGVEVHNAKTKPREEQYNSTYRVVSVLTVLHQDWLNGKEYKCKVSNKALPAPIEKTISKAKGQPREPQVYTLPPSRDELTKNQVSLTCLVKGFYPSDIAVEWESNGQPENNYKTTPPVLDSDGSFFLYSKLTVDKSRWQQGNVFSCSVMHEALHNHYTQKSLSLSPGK

Sequence of Dimeric Monkey Ang-2FD conjugated to human IgG1 (monkey (Macca fascicularis)) (chain, as listed by the source limits assumed): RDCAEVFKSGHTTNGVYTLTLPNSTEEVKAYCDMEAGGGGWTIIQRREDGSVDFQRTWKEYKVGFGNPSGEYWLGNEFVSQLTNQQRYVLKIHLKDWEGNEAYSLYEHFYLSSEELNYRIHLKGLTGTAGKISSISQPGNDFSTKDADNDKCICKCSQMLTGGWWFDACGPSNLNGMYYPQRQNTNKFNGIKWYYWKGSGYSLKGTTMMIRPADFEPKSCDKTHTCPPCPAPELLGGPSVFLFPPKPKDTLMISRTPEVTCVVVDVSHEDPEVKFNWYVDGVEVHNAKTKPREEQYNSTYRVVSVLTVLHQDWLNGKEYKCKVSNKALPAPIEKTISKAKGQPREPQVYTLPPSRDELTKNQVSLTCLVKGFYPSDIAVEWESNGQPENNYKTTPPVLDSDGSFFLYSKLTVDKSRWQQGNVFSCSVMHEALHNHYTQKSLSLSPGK
Sequence of Dimeric Human Ang-2FD conjugated to human IgG1 (human) (chain, as listed by the source limits assumed): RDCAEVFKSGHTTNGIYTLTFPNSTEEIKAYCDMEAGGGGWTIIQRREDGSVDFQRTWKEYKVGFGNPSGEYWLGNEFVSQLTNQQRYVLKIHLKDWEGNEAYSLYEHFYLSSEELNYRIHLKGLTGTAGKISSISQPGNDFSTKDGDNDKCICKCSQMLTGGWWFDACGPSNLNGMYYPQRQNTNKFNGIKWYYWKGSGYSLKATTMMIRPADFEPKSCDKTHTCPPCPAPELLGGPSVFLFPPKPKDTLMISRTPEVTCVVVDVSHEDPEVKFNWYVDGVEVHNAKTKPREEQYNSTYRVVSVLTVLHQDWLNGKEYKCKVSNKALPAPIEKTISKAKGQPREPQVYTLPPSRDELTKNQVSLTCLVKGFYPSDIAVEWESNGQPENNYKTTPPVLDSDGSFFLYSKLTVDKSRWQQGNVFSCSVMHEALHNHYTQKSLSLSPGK

B1: H1H724N (antibody, V domains shown)
VH: QVQLVESGGGVVQPGRSLRLSCAASGFTLSNYGMHWVRQAPGKGLEWVAVIWHDGSNTYYADSVKGRFTISRDNSKNTLYLQMNSLRAEDTAVYYCTREGLDFWSGYYPNWFDPWGQGTLVTVSS
VL: DIQMTQSPSSLSASVGDRVTITCRASQGIRNDLGWYQQKPGKAPKRLIYAASNLQGGVPSRFSGSGSGTEFTLTISSLQPEDFAAYYCLQHNIYPLTFGGGTKVEIK
Work on B1 yielded a Percent Blocking of Ang-2FD Binding to Tie-2 [1] of 96.6%, a Percent Blocking of Ang-2FD Binding to Tie-2 [2] of 96.6% and a Percent Blocking of Ang-2FD Binding to Tie-2 [3] of 97.1%. It also gave a Kd [4] of 0.239 nM, a T1/2 [4] of 2.88 h and a Kd [5] of 0.115 nM. It also gave a T1/2 [5] of 1.78 h, a Kd [6] of 0.185 nM and a T1/2 [6] of 1.4 h.
